{
  "source": "IntAct's records for PubMed 21697476",
  "parents": {"B1": {"name": "Replication and transcription activator (Epstein-Barr virus (strain B95-8) (HHV-4)), P03209 (parent)", "chain": "MRPKKDGLEDFLRLTPEIKKQLGSLVSDYCNVLNKEFTAGSVEITLRSYKICKAFINEAKAHGREWGGLMATLNICNFWAILRNNRVRRRAENAGNDACSIACPIVMRYVLDHLIVVTDRFFIQAPSNRVMIPATIGTAMYKLLKHSRVRAYTYSKVLGVDRAAIMASGKQVVEHLNRMEKEGLLSSKFKAFCKWVFTYPVLEEMFQTMVSSKTGHLTDDVKDVRALIKTLPRASYSSHAGQRSYVSGVLPACLLSTKSKAVETPILVSGADRMDEELMGNDGGASHTEARYSESGQFHAFTDELESLPSPTMPLKPGAQSADCGDSSSSSSDSGNSDTEQSEREEARAEAPRLRAPKSRRTSRPNRGQTPCPSNAAEPEQPWIAAVHQESDERPIFPHPSKPTFLPPVKRKKGLRDSREGMFLPKPEAGSAISDVFEGREVCQPKRIRPFHPPGSPWANRPLPASLAPTPTGPVHEPVGSLTPAPVPQPLDPAPAVTPEASHLLEDPDEETSQAVKALREMADTVIPQKEEAAICGQMDLSHPPPRGHLDELTTTLESMTEDLNLDSPLTPELNEILDTFLNDECLLHAMHISTGLSIFDTSLF"}},
  "data": [
    {"variants_of": "B1", "conditions": "with po2f1_human POU2F1, P14859", "values": [
      {"variant": "M140A", "effect of a mutation on the interaction": "decreasing interaction"}
    ]}
  ]
}
